Test results reported in PMC9284671 (Structure (London, England : 1993), 2022).

Tests used:
[1] = target: hCoV-HKU1 S2P (pre-fusion-stabilized soluble spike) (hCoV-HKU1 isolate N1, UniProt Q5MQD0, stabilised); experiment: ELISA
[2] = target: hCoV-OC43 S2P (pre-fusion-stabilized soluble spike) (hCoV-OC43 (AAT84354.1, cross-referenced …, UniProt P36334, stabilised)); experiment: ELISA
[3] = target: SARS-CoV-2 S-dTM (soluble spike protein residues 1-1,206 of wild-type WA-1 strain) (SARS-CoV-2 WA-1, UniProt P0DTC2); experiment: ELISA
[4] = target: SARS-CoV-2 full-length spike (WA-1) (SARS-CoV-2 WA-1 (GenBank QHD43416.1), UniProt P0DTC2); experiment: flow cytometry on cells
[5] = target: SARS-CoV full-length spike (Urbani) (SARS-CoV Urbani, UniProt P59594); experiment: flow cytometry on cells
[6] = target: MERS-CoV full-length spike (EMC) (MERS-CoV EMC/2012 (GenBank AFS88936), UniProt K0BRG7); experiment: flow cytometry on cells
[7] = target: hCoV-HKU1 full-length spike (hCoV-HKU1 isolate N1, UniProt Q5MQD0); experiment: flow cytometry on cells
[8] = target: hCoV-OC43 full-length spike (hCoV-OC43 (AAT84354.1, cross-referenced …, UniProt P36334)); experiment: flow cytometry on cells
[9] = target: T1, SARS-CoV-2 spike S2 subunit (SARS-CoV-2 (WA-1 / Wuhan-Hu-1), UniProt P0DTC2); experiment: far-Western, overlay or dot blot
[10] = target: T2, SARS-CoV spike peptide #154 (PELDSFKEELDKYFKNH) (SARS-CoV); experiment: far-Western, overlay or dot blot
T2 chain: PELDSFKEELDKYFKNH

[11] = target: T1, SARS-CoV-2 spike S2 subunit; experiment: negative-stain electron microscopy

Measured: binding result

B1: WS6 (monoclonal antibody, IgG) (antibody, V domains shown)
VH: EVQFQQSGTVLARPGASVKMSCKASGYTFTNYWIHWVKQRPGQGLEYIGGTYPGNGDTTYNQKFKGKAKVTAVTPTSTAYMDLSSLTNEDSAVYYCTRTGSYFDYWGQGTTLTVSS
VL: QIVLTQSPAIMSASPGEKVTISCSATSSVSYIYWYQQRPGSSPKPWIYRTSNLASGVPVRFSGSGSGTSYSLTISNMEAEDAATYYCQQYQSYPPTFGAGTKLELK
binds: [1] | [2] | [3] | [4] | [5] | [6] | [7] | [8] | [9] | [10]

B2: WS6 Fab (antigen-binding fragment of WS6) (Fab, V domains shown)
VH: EVQFQQSGTVLARPGASVKMSCKASGYTFTNYWIHWVKQRPGQGLEYIGGTYPGNGDTTYNQKFKGKAKVTAVTPTSTAYMDLSSLTNEDSAVYYCTRTGSYFDYWGQGTTLTVSS
VL: QIVLTQSPAIMSASPGEKVTISCSATSSVSYIYWYQQRPGSSPKPWIYRTSNLASGVPVRFSGSGSGTSYSLTISNMEAEDAATYYCQQYQSYPPTFGAGTKLELK
binds: [11]
